# Experiment: soluble on expression in E. coli; label from the status in PepcDB or PDB records
row,Sequence,soluble on expression in E. coli
1,GPGSMHFPALFPEPLATAHASRLHPFPWSSSYESIFLCPPTSLCSSAASMTQPTLTEDELDDALGLAIRAANTAAFISNSVIDDKTNNIVEAQTRNNPNDLVTQCEKHCKEEVLNILRVGTPSYAILSDDMHSEAVLGDGPTWIVGPIDGTVSFKHGLFDFCISIALALRKEPILGVVCAPRLQEVFTAVNNRGAFSNGQRIHVSLVDSLRQSVVLLHHSGTRSDAAVRSVAAMQAELAKLPVQGLRCNGSAALDMCLVAAGRAELFWKAGVNPWNVAAGVIIVREAGGVVHDVESTDSFDLTCRSVCCGCSLDVTKHGVELSLKHNYRSSVLNTSS,not soluble
2,GPGSMHPGLPRAFPDTEWQTVADIFRRRAPVSFLAPNSSASATADPAAAAEAWVQQEIGYYEANYTTVEDLNVCVTTFNVGCKKPVLPLTSLACLTSGGGGADGAPVRPTDLIVVGLQEVDMSATALFKQETEASAPWVAGLNAAIGASRCSSTAASSSSGAGASPYYAFPPKQLVGLLLCVFIRRPLLSAVSESSTATVATGALGSMGNKGAVGFHLVLHRTSICIITAHLAAGQSNVSKRNEDINTILKSMDFNAARRAEMQISASASMPMDESVFLELHPRDHDIIIVAGDLNYRLRLPYETAVHLANAGQFSELLQYDELATEMKSPHTPWLNFINFTPTHMPTYRFDIGTDAYDTSEKRRVPSYTDRICMWSRRKSMESRVRLDRLSALMEVRSSDHKPVQALARIPISVEVPAQKAQVISSLREKVAAVGLAQASSAKISLSTSKVNFQAQSFHHCGAQETVTVQNSGDCVAVVRVVRQREGDYSEGTWLRATPLELAILPGESQDVVIETAIDPRCMTWLAAWSPYQGRGRVSLTSVLLFCCRNGPVQAVECQCLLSPSVFGNGLDSIALLQDKPCVEAYAQKADFEEVVRQVRPHVPKELWYLAHVIAQHPREGGLFTRSTDKDVCCRIMELLDTKNAPLPAGTDVHCAAECLLAFLKNLLEPVVPYAQYTTALAAGRAKGKAPLQFLRQLPTMHANVWIYVMSLLNYLLRPVHSCDNELDANFLAHIFSAVLIVRPTNAQGAIPARLQQGGGVDQQVRQQLQQESDDALALVAYFLSTPPSMLAGVE,not soluble
3,GPGSMIKIHTEKDFIKMRAAGKLAAETLDFITDHVKPNVTTNSLNDLCHNFITSHNAIPAPLNYKGFPKSICTSINHVVCHGIPNDKPLKNGDIVNIDVTVILDGWYGDTSRMYYVGDVAIKPKRLIQVTYDAMMKGIEVVRPGAKLGDIGYAIQSYAEKHNYSVVRDYTGHGIGRVFHDKPSILNYGRNGTGLTLKEGMFFTVEPMINAGNYDTILSKLDGWTVTTRDKSLSAQFEHTIGVTKDGFEIFTLSPKKLDYPPY,soluble
4,GPGSMIRRYSLAIGGSCCCPAPRLISTEAFVSSVEKVQHQLGTSERKQDLILHGRQLFENESLDDIHSAWTPVVAGKICHAATQLRISPTKGQPFGAVVGLSLTPEAVGVMDAPSLARIAHSCLILRSPHLYEVLFTYIRRLITLAATLDTVSCAVLINAYGRAQVHHEEFYKVICDRAAVVMKDPRTFVAHTANVAHALSRVRYFHRDLFLTLRDQAERQASQGPPLVAVTILDGFAEIGFVDDALFTALEQRLLGELAELPAPLMASLVSCLAKAGRAPSPLFTACGERIVAIGNTFDSNSIAKTCDAFYRANVPAEEVLGTLAERACKVVADFRPDEINQTLSSLASFDLFDGELFPLLASRFVSIVKQGGYVSPVDAAGILTSFAVVQERSDELVHVCTQLLSVHRDALDGITLLQTLWACVTLNVRNEAQQNLLQCLSSGAVVLPDEASAEKESKVVLERLLFVKKAYGLQ,not soluble
5,GPGSMLGSPLFPVAMDSFFDEDECERLGVWEDPRCLRAAEYTQCVATIRALIEQYGVAAAPLHTVKDAAQFLRFEASSAVSHPPMRESAVSYTVKSYGEASKKCVSEANNIVLSSLCMNDACVAGNAADGTDVALEKVFIVCEGFLIFGYPELCNMFDFFVFVHSDNETACLRRFFRGSRRKKRKPQGGNCDRILRMRTSRVNAELWSSEGAAANKTLSPSFSSVLPHLKYMPPQPSSPNDYQGFWLQSEYKELPPPMPFGMSGLKAPPYDWLEVKDLQYVKQMLHQWANASCVDDVEGVLGRYFEFRYWFYYEVLFYHYQLRGISEENVTTACQAKGTTKTSPSQSVLHIKNDASVSCVMLDSQLLALAQQVSGDLINGEGEVRLLLGWN,not soluble
6,GPGSMLHRSLACFAVPADRKAFMELVKTLRYRTEAPISDCSAALKETDGDMDAAMQVLRKRGAARAMKKGDRVTEHGFVVSCVGSTPQSGAAIVTICSETDFAARNEHFQRVCMQVRDQLCKLMDATNGAVLANPEEAVKHLSDVMAEELRVAIAVLGENMRVRSIAPLVPAPHVSERLLIGSYTHGSLNVDNVGRIVGLVALSQVRENEVVPKDVLTSVGRHFVATSGAEGNYAHQNFFGSETETVGKWLKQRGLKFSSSLVQEFGKEPVVHTAPEPHR,not soluble

# — the DeepSol protein solubility set
